The record followed here is patent US8703915B2, “Mutant proteins and methods for producing them” (Heptares Therapeutics Limited, priority 2009, dated 2014).

Data set [1] concerns adenosine A2A receptor. Kind of data set: Antagonist binding to adenosine A2A NPxxY motif alanine mutants (Table 1). Set-up: species or system human. As for the experimental part: (§1) An alanine scan was carried out in a similar fashion on an adenosine A2A receptor along with the 5HT2C receptor in the presence of the antagonist Mesulergine. Both alanine scans were carried out in order to further stabilize the antagonist conformation. […] The motif in Adenosine A2A is NPFIY (SEQ ID NO: 364) and for the 5HT2C is NPLVY (SEQ ID NO: 363). Therefore mutations in this region of the receptor contain stabilising mutations specific to the agonist conformation and detrimentally effect antagonist binding.
Adenosine A2A receptor was solubilised from transiently transfected mammalian cells about 36 hours post transfection, in 50 mM Tris pH7.4/400 mM NaCl/0.5% DDM and protease inhibitor. Cell lysates were left at 4° C. on a rotator and then cleared by centrifugation at 13,200 rpm for 20 minutes at 4° C. Solubilised receptors were then purified on Ni-NTA beads and eluted with 50 mM histidine. The eluted receptor was used in radioligand binding assay. The Tm was determined by incubating 108 μl of the eluate with Zm241385 radioligand at a final concentration of 100 nM for one hour at 4° C. The six ligand incubations are then incubated at six different temperatures from 20° C. to 50° C., for thirty minutes. Receptor bound and free radioligand were separated using G25 Sephadex spin columns.

Data set [2] relates to M4 muscarinic receptor. As to the kind of experiment: Thermostability of M4 muscarinic receptor bound to antagonist NMS. The class given is physicochemical, human. Particulars: bound to antagonist NMS. As for the experimental part: In order to stabilise the M4 muscarinic receptors in antagonist conformation, a systematic alanine-scan was performed to identify mutations that stabilise receptors bound to the muscarinic antagonist, NMS. […] However, L71A (three residues N-terminal of the L2.46) was identified as a stabilising mutation. This mutation increases the Tm of this receptor by about 2° C. (FIG. 8a).
(§2) A2AR-(2-316) expression was carried out by using the pRG/III-hs-MBP E. coli expression vector and DH5α cells. Cells were grown at 37° C. in 2 L flasks containing 500 mL of 2×TY medium supplemented with Ampicillin (100 μg/mL) and glucose (0.2% w/v). At OD600≈0.7, IPTG and theophylline were added at final concentrations respectively of 0.5 mM and 100 μM, and the temperature was reduced to 20° C. After 22 to 24 hours, cells were harvested in aliquots of 14 mL, centrifuged for 30 min and stored at −20° C. Both 5HT2C and M4 receptors were transiently expressed in HEK293T cells using GeneJuice transfection reagent used according to the manufacturers guidelines.
Transiently transfected mammalian cells expressing M4 were harvested about 40 hours post transfection and the receptors were solubilised in 50 mM Tris pH 7.5/250 mM NaCl/1% DDM/EDTA free protease inhibitor mix for 1 hour rotating at 4° C. The solubilised lysate was then cleared by centrifugation at 13000 rpm for 15 minutes at 4° C. The solubilised receptors were then purified on Ni-NTA beads and eluted with 100 mM histidine. The eluted receptor was used in radioligand binding assay. Thermostability of M4 was measured using 25 μL of purified receptor mixed with 95 μL of 12 nM [^3H]-NMS (final concentration of 10 nM). The sample was incubated for 60 min at 4° C., then 30 min at the specified temperature and then 30 min at 4° C. Receptor bound and free radioligand were separated using a 96-well plate gel filtration assay.

For data set [3], the system named is 5HT2C receptor. As to the kind of experiment: Thermostability of 5HT2C receptor bound to agonist SCH23390. Type of data set: physicochemical, human. As to conditions: for increase of Tm: agonist SCH23390 bound, versus parent 5HT2C. As to the method:
An alanine scan has been carried out on the 5HT2C receptor in the presence of the agonist SCH23390 in order to stabilise the agonist conformation. Similar to A2A, it appears that mutating L2.46 (L95 in 5HT2C) to alanine confers significant stability on this receptor increasing the Tm of the receptor by 5.4° C. (FIG. 7). It is notable that in addition to L95, mutating the nearby M93 (two residues away from L2.46) to alanine also confers stability to the agonist bound receptor, resulting in an increase of 2.9° C.
as §2
5HT2C receptor was solubilised from transiently transfected mammalian cells in 50 mM Hepes pH7.4, 100 mM KCl, 0.5% DDM (0.1% CHS/0.6% CHAPS was added to cells for SCH23390 agonist assay). Tm analysis was performed directly on the soluble lysate. The Tm was determined by incubating 108 μl of the lysate with [N^6-methyl-^3H]Mesulergine radioligand at a final concentration of 17 nM or 9 nM [^3H]SCH23390 for one hour at 4° C. The six ligand incubations are then incubated at six different temperatures from 25° C. to 55° C., for thirty minutes. Receptor bound and free radioligand were separated using a 96-well plate gel filtration assay.
(§3) 5HT2C receptor was solubilised from transiently transfected mammalian cells about 40 hours post transfection, in 50 mM Hepes pH7.4/100 mM KCl/0.5% DDM/(0.1% CHS/0.6% CHAPS was added to cells for SCH23390 agonist assay) and protease inhibitor. Cell lysates were left at 4° C. on a rotator and then cleared by centrifugation at 13,200 rpm for 20 minutes at 4° C. Thermostability analysis was performed directly on the soluble lysate. The Tm was determined by incubating 108 μl of the lysate with [N^6-methyl-^3H]Mesulergine radioligand at a final concentration of 17 nM or 9 nM [^3H]SCH23390 for one hour at 4° C. The six ligand incubations are then incubated at six different temperatures from 25° C. to 55° C., for thirty minutes. Receptor bound and free radioligand were separated using G25 Sephadex spin columns.

Data set [4] deals with 5HT2C receptor. Kind of data set: Antagonist binding to 5HT2C NPxxY motif alanine mutants (Table 1). Set-up: species or system human; Average / Average - BG: unit not given here. As to the method:
as §1, §3

Data set [5] has as its system 5HT2C receptor. As to the kind of experiment: Two point thermostability assay, SCH23390 agonist binding to 5HT2C alanine scan mutants. Type of data set: physicochemical, human. As to the method:
An alanine scan has been carried out on the 5HT2C receptor in the presence of the agonist SCH23390 in order to stabilise the agonist conformation.
as §3

B1: Y288A: adenosine A2A receptor NPFIY motif mutant Y288A (protein, UniProt P29274 1-412, looked up, variant Y288A)
Adenosine receptor A2a: MPIMGSSVYITVELAIAVLAILGNVLVCWAVWLNSNLQNVTNYFVVSLAAADIAVGVLAIPFAITISTGFCAACHGCLFIACFVLVLTQSSIFSLLAIAIDRYIAIRIPLRYNGLVTGTRAKGIIAICWVLSFAIGLTPMLGWNNCGQPKEGKNHSQGCGEGQVACLFEDVVPMNYMVYFNFFACVLVPLLLMLGVYLRIFLAARRQLKQMESQPLPGERARSTLQKEVHAAKSLAIIVGLFALCWLPLHIINCFTFFCPDCSHAPLWLMYLAIVLSHTNSVVNPFIAAYRIREFRQTFRKIIRSHVLRQQEPFKAAGTSARVLAAHGSDGEQVSLRLNGHPPGVWANGSAPHPERRPNGYALGLVSGGSAQESQGNTGLPDVELLSHELKGVCPEPPGLDDPLAQDGAGVS
On to B1, for which the “% of Wildtype binding” value in data set [1] (antagonist binding) is on record as 14.74%. The same molecule displayed a DPM1 in data set [1] (antagonist binding, replicate 1) of 2150 DPM. The DPM2 in data set [1] (antagonist binding, replicate 2) was found to be 2602 DPM. In data set [1] (average minus background), the “Average - BG” value is listed as 1876. The molecule also returned an Average in data set [1] (average of DPM1 and DPM2) of 2376.

B2: M4: parent human M4 muscarinic receptor (protein, UniProt P08173 1-479, looked up)
Muscarinic acetylcholine …: MANFTPVNGSSGNQSVRLVTSSSHNRYETVEMVFIATVTGSLSLVTVVGNILVMLSIKVNRQLQTVNNYFLFSLACADLIIGAFSMNLYTVYIIKGYWPLGAVVCDLWLALDYVVSNASVMNLLIISFDRYFCVTKPLTYPARRTTKMAGLMIAAAWVLSFVLWAPAILFWQFVVGKRTVPDNQCFIQFLSNPAVTFGTAIAAFYLPVVIMTVLYIHISLASRSRVHKHRPEGPKEKKAKTLAFLKSPLMKQSVKKPPPGEAAREELRNGKLEEAPPPALPPPPRPVADKDTSNESSSGSATQNTKERPATELSTTEATTPAMPAPPLQPRALNPASRWSKIQIVTKQTGNECVTAIEIVPATPAGMRPAANVARKFASIARNQVRKKRQMAARERKVTRTIFAILLAFILTWTPYNVMVLVNTFCQSCIPDTVWSIGYWLCYVNSTINPACYALCNATFKKTFRHLLLCQYRNIGTAR
Consider B2, for which, in data set [2], the Tm stood at 34.0 °C.

B3: M93A: 5HT2C receptor mutant, M93 to alanine (protein, UniProt P28335 33-458, looked up, variant M93A)
5-hydroxytryptamine receptor …: IVTDIFNTSDGGRFKFPDGVQNWPALSIVIIIIMTIGGNILVIMAVSMEKKLHNATNYFLASLAIADMLVGLLVMPLSLLAILYDYVWPLPRYLCPVWISLDVLFSTASIMHLCAISLDRYVAIRNPIEHSRFNSRTKAIMKIAIVWAISIGVSVPIPVIGLRDEEKVFVNNTTCVLNDPNFVLIGSFVAFFIPLTIMVITYCLTIYVLRRQALMLLHGHTEEPPGLSLDFLKCCKRNTAEEENSANPNQDQNARRRKKKERRPRGTMQAINNERKASKVLGIVFFVFLIMWCPFFITNILSVLCEKSCNQKLMEKLLNVFVWIGYVCSGINPLVYTLFNKIYRRAFSNYLRCNYKVEKKPPVRQIPRVAATALSGRELNVNIYRHTNEPVIEKASDNEPGIEMQVENLELPVNPSSVVSERISSV
Turning to B3, the “increase of Tm” value in data set [3] is 2.9 °C. Also, the Tm in data set [3] (bound to agonist SCH23390) came to 45.6 °C.

B4: L366: 5HT2C receptor mutant, residue 7.51 (L366, L in NPLVY) to alanine (protein, UniProt P28335 33-458, looked up, variant L366A)
5-hydroxytryptamine receptor …: IVTDIFNTSDGGRFKFPDGVQNWPALSIVIIIIMTIGGNILVIMAVSMEKKLHNATNYFLMSLAIADMLVGLLVMPLSLLAILYDYVWPLPRYLCPVWISLDVLFSTASIMHLCAISLDRYVAIRNPIEHSRFNSRTKAIMKIAIVWAISIGVSVPIPVIGLRDEEKVFVNNTTCVLNDPNFVLIGSFVAFFIPLTIMVITYCLTIYVLRRQALMLLHGHTEEPPGLSLDFLKCCKRNTAEEENSANPNQDQNARRRKKKERRPRGTMQAINNERKASKVLGIVFFVFLIMWCPFFITNILSVLCEKSCNQKLMEKLLNVFVWIGYVCSGINPAVYTLFNKIYRRAFSNYLRCNYKVEKKPPVRQIPRVAATALSGRELNVNIYRHTNEPVIEKASDNEPGIEMQVENLELPVNPSSVVSERISSV
With B4, the “% of Wildtype binding” value in data set [4] (antagonist Mesulergine binding) was determined as 19.27%. For the same molecule, the DPM1 in data set [4] (antagonist Mesulergine binding, replicate 1) turned out to be 2515 DPM. In data set [4] (antagonist Mesulergine binding, replicate 2), this molecule returned a DPM2 of 1897 DPM. Also, in data set [4] (average minus background), the “Average - BG” value is 1774.5. This molecule also displayed an Average in data set [4] (average of DPM1 and DPM2) of 2206. In addition, the “thermostability (agonist binding at the destabilising temperature compared to wild type)” value in data set [5] is “increased agonist binding compared to the wild type receptor”. Also, the “increase of Tm” value in data set [3] was 4 °C.

B5: 1363: 5HT2C receptor mutant, residue 7.48 to alanine (protein, listed as Homo sapiens)
chain: MVNLRNAVHSFLVHLIGLLVWQCDISVSPVAAIVTDIFNTSDGGRFKFPDGVQNWPALSIVIIIIMTIGGNILVIMAVSMEKKLHNATNYFLMSLAIADMLVGLLVMPLSLLAILYDYVWPLPRYLCPVWISLDVLFSTASIMHLCAISLDRYVAIRNPIEHSRFNSRTKAIMKIAIVWAISIGVSVPIPVIGLRDEEKVFVNNTTCVLNDPNFVLIGSFVAFFIPLTIMVITYCLTIYVLRRQALMLLHGHTEEPPGLSLDFLKCCKRNTAEEENSANPNQDQNARRRKKKERRPRGTMQAINNERKASKVLGIVFFVFLIMWCPFFITNILSVLCEKSCNQKLMEKLLNVFVWIGYVCSGANPLVYTLFNKIYRRAFSNYLRCNYKVEKKPPVRQIPRVAATALSGRELNVNIYRHTNEPVIEKASDNEPGIEMQVENLELPVNPSSVVSERISSV
Turning to B5, the “thermostability (agonist binding at the destabilising temperature compared to wild type)” value in data set [5] is reported as “increased agonist binding compared to the wild type receptor”.
